Results on one molecule are retold here after patent US20240132617A1 (VISTERRA, published 2024).

In the experiment the target is T1, human C3b (human, UniProt P01024 23-667; P01024 749-1663, limits assumed).
T1 construct: C3b is its two-chain fragment (beta chain plus alpha' chain, without C3a); also called complement component 3b
The experiment can be described thus: antibody levels measured by capture on human C3b versus Cynomolgus C3b (FIG. 1C and FIG. 1D). How it is done: In this study, pharmacokinetics of anti-C3b antibodies was determined in non-human primates. First, Ab1 (anti-C3b VHH fused to modified IgG4 Fc) and control Ab (IC12; control antibody) were intravenously administered at 10 mg/kg to Cynomolgus monkeys. Plasma samples were collected pre-administration and at 30 minutes, 6 hr, 24 hr, 48 hr, 120 hr, 336 hr, 456 hr, 672 hr, and 792 hr post administration, and % of antibody remaining was measured.
To confirm that the C3b antibody of the present invention binds to human C3b with high affinity, in addition to Cynomolgus C3b, concentrations of antibodies to human C3b or Cynomolgus C3b were measured.

T1 sequence (P01024 23-667 limits assumed, chain 1 of 2): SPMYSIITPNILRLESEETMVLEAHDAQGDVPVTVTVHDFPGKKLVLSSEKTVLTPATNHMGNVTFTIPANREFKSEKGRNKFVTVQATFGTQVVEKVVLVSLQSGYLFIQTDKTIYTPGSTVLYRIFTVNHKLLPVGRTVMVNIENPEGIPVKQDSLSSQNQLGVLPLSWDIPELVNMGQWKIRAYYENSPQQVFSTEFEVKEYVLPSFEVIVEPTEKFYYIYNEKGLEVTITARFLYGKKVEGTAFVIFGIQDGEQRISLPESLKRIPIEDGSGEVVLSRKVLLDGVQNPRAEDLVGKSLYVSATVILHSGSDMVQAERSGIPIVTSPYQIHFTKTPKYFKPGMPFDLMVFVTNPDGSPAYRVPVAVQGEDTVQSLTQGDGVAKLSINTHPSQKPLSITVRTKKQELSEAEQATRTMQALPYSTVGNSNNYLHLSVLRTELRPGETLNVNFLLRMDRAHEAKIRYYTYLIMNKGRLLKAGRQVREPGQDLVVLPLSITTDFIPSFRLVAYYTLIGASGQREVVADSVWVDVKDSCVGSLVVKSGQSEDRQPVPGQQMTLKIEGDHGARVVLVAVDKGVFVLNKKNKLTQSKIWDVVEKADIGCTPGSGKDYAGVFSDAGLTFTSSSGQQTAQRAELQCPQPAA
T1 sequence (P01024 749-1663 limits assumed, chain 2 of 2): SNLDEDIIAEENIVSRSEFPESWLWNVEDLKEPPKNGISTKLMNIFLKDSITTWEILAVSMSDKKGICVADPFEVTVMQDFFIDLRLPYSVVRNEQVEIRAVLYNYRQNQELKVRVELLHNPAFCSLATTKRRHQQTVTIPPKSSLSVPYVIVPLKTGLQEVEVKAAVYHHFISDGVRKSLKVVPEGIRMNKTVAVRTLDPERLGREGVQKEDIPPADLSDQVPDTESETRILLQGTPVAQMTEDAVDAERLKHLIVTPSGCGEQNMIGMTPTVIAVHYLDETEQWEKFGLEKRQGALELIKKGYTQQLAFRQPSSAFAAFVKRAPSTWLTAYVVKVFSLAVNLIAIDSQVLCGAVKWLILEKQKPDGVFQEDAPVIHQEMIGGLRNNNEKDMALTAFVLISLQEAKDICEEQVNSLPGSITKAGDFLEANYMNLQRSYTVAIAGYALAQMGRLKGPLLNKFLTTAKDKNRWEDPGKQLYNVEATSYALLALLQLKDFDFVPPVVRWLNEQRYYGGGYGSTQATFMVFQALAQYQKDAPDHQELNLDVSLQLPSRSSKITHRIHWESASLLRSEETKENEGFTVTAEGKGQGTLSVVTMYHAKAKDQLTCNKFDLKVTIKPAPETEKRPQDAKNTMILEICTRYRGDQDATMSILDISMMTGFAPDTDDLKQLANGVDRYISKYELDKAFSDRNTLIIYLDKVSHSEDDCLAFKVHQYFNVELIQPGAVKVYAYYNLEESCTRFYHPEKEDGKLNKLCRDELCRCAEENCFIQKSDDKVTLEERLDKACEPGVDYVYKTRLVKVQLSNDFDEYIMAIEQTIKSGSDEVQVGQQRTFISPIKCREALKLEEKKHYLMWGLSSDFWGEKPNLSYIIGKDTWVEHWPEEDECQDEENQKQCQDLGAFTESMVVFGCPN

B1: Ab1 (anti-C3b VHH fused to modified IgG4 Fc) (Fc fusion)
chain: EVQLLESGGGLVQPGGSLRLSCAASGRTFSNYHMGWFRQAPGQGREFVATIIRTGTTIYYADSVKGRFTISRDNSKNTLYLQMNSLRAEDTAVYYCAAATSGWHIKTVTPYEYWGQGTLVTVSSESKYGPPCPPCPAPEVEGGPSVFLFPPKPKDTLMISRTPEVTCVVVGVSQEDPEVQFNWYVDGVEVHNAKTKPREEQFNSTYRVVSVLQVLHVDWLNGKEYKCKVSNKGLPSSIEKTISKAKGQPREPQVYTLPPSQEEMTKNQVSLTCLVKGFYPSDIVVEWESNGQPENNYKTTPPVLDSDGSFFLYSRLTVDKSRWQEGNVFSCSVMHEALHNHYTQKSLSLSLGK
notes: In the assay Ab1 was in plasma of dosed Cynomolgus monkeys; also called anti-C3b Ab1; C3b antibody
Regarding B1, the “fold greater affinity as compared to Cynomolgus C3b” value was about 100 fold.
